Patent publication US20080039616A1

Molecular target: FLAG® HA BAP fusion protein [phosphatase: P00634]
Test: immunoprecipitation of purified FLAG HA BAP in 3 extraction buffers, blot with anti-HA-peroxidase

protein recovery (% of input protein) (% of input protein): > 70
Substance: ANTI-FLAG® affinity resin (antibody)
